Laboratory results from PMC4231456, “HIV-1 Tat protein binds to TLR4-MD2 and signals to induce TNF-α and IL-10” (Retrovirology, 2013).

Key:
[1] = target: GST-Tat 1-101 (HIV-1 Tat protein) (HIV-1); test: ELISA; competition: GST-Tat 1-101 or GST-Tat 1-45 (0.1 μM) pre-incubated 1 h at 37°C with increasing amounts of soluble rhMD2, rhTLR4-MD2, rhTLR4 or rhCD14, then 2 h on coated rhMD2 (or TLR4-MD2); OD 450 nm; K0.5 taken as an apparent dissociation constant
recombinant human TLR4 = target: T1, recombinant human TLR4 (human, UniProt O00206 24-631); test: ELISA; rh TLR4 coated at 1 μg/ml; MD2 at 1-10 μg/ml in solution; detected with anti-MD2 monoclonal antibodies; conditions: both partners purified
T1 construct: human Toll-like receptor 4 (TLR4), recombinant, used coated or soluble without MD2; also called rhTLR4; rh TLR4
T1 sequence (O00206 24-631): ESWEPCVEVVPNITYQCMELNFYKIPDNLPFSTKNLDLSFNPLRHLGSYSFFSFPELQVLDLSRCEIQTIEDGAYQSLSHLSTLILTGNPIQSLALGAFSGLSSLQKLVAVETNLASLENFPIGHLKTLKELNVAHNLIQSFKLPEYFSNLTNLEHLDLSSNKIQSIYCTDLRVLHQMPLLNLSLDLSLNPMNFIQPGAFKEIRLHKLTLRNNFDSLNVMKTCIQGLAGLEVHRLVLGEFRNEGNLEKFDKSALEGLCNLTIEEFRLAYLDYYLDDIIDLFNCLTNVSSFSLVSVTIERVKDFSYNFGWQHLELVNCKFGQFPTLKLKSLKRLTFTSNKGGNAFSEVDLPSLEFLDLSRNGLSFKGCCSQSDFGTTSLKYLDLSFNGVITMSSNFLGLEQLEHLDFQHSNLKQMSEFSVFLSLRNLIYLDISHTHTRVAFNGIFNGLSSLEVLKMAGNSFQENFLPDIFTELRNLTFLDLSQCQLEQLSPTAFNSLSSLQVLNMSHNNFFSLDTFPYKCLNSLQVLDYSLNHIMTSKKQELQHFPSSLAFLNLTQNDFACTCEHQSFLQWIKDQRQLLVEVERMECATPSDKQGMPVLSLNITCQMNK

Chain of GST-Tat 1-101 (HIV-1 Tat protein) (HIV-1) (P04614 whole entry): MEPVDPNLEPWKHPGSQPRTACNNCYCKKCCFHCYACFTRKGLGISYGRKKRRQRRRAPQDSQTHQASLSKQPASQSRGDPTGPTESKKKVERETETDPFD
Chain of recombinant human TLR4-MD2 complex (O00206 24-631, one chain of several): as the sequence (O00206 24-631) above

Molecule | IC50 [1] | binding result (recombinant human TLR4) | percent inhibition of Tat binding to coated MD2 with soluble MD2 at 1 μg/ml [1]
recombinant human TLR4-MD2 complex (from UniProt O00206 24-631; Q9Y6Y9 19-160) | 1 nM |  | 
recombinant human MD2 (natural protein, UniProt Q9Y6Y9 19-160, looked up, human MD2 (lymphocyte antigen 96), soluble recombinant; No catalogue number printed; also called rhMD2; hMD2; source: bought: R&D Systems) QKQYWVCNSSDASISYTYCDKMQYPISINVNPCIELKRSKGLLHIFYIPRRDLKQLYFNLYITVNTMNLPKRKEVICRGSDDDYSFCRALKGETVNTTISFSFKGIKFSKGKYKCVVEAISGSPEEMLFCLEFVILHQPNSN | 4 nM | binds | > 95%
